In PMC7821693, “Revealing biophysical properties of KfrA-type proteins as a novel class of cytoskeletal, coiled-coil plasmid-encoded proteins”:
“And” between values parts separate entries of the source, which are not always exact repeats. Identical values can stand only once.

Assays:
[1] = biological target: His6-KfrA_(R751) (plasmid R751 (IncP-1β)); assay: cross-linking; glutaraldehyde at different concentrations, protein 0.1 mg/ml, 20 min at 25 °C, 0.05 M bicine-NaOH pH 8.5, 0.1 mM DTT, 0.4 M NaCl; products on SDS-PAGE
[2] = biological target: T1, KfrA R751 (His6-KfrAR751) (IncP-1beta plasmid R751, UniProt P71173 1-342); assay: EMSA; complex unstable, smear; two complexes; EMSA: 50 mM Tris-HCl pH 8.0, 10 mM MgCl2, 50 mM NaCl, 10 pmol DNA, 30 min at 37 C (legend: 25 C), 2.5% agarose in 0.5x TBE; TEM: 0.3 mg/ml protein, 50 mM sodium phosphate pH 7.5, 150 mM NaCl; conditions: protein: recombinant; chain copies: 2; blunt
T1 sequence: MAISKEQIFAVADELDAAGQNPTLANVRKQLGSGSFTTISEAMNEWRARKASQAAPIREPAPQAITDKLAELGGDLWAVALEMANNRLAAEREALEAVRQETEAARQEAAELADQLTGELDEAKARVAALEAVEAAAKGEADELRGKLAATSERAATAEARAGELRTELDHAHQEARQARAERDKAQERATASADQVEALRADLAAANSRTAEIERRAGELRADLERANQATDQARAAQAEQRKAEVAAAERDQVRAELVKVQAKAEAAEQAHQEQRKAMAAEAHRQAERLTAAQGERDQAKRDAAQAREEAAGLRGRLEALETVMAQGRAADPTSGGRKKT

KfrA RA3 (His6-KfrARA3) [3] = biological target: T2, KfrA RA3 (His6-KfrARA3) (IncU plasmid RA3, UniProt Q209P3 1-355); assay: EMSA; two complexes, some smear; EMSA: 50 mM Tris-HCl pH 8.0, 10 mM MgCl2, 50 mM NaCl, 10 pmol DNA, 30 min at 37 C (legend: 25 C), 2.5% agarose in 0.5x TBE; TEM: 0.3 mg/ml protein, 50 mM sodium phosphate pH 7.5, 150 mM NaCl; conditions: protein: recombinant; chain copies: 2; blunt
T2 sequence: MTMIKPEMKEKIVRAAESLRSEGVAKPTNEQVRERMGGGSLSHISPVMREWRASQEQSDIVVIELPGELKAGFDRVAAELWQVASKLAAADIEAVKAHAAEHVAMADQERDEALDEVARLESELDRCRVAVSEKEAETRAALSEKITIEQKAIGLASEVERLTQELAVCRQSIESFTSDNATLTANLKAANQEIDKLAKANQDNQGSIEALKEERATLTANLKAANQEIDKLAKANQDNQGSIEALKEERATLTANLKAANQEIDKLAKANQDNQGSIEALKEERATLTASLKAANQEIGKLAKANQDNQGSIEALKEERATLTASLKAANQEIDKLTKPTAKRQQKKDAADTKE

KfrA RA3 (His6-KfrARA3) [4] = biological target: T2, KfrA RA3 (His6-KfrARA3); assay: competition; unlabeled competitor vs labeled OKRA3; EMSA: 50 mM Tris-HCl pH 8.0, 10 mM MgCl2, 50 mM NaCl, 10 pmol DNA, 30 min at 37 C (legend: 25 C), 2.5% agarose in 0.5x TBE; TEM: 0.3 mg/ml protein, 50 mM sodium phosphate pH 7.5, 150 mM NaCl; conditions: protein: recombinant; chain copies: 2; blunt

His6-KfrA_(R751) (natural protein) was tested. Which stoichiometry N [1] did it give?
The stoichiometry N was 2 and 4.

B1: OKR751 (#15/#16), 50 bp (dsDNA)
DNA 1: CTTGCGTAGTGTTGTATGTTGTAGTATGCTACACGCTACAACATACAACC
DNA 2: GGTTGTATGTTGTAGCGTGTAGCATACTACAACATACAACACTACGCAAG
Does B1 bind [2]?
Result: binds

B2: OKRA3 (#17/#18), 60 bp (dsDNA)
DNA 1: TCCGTTGTATTGTATGTATTGTATGTATTGTATTAAAATACAATACATACAATACAGGGA
DNA 2: TCCCTGTATTGTATGTATTGTATTTTAATACAATACATACAATACATACAATACAACGGA
Does B2 bind (KfrA RA3 (His6-KfrARA3) [3])?
Result: binds

B3: OG5/OD5 (#9/#10), specific competitor (dsDNA)
DNA 1: TATGTATTGTATGTATTGTATTAAAATACAATACATACAATACAGG
DNA 2: CCTGTATTGTATGTATTGTATTTTAATACAATACATACAATACATA
Does B3 bind (KfrA RA3 (His6-KfrARA3) [4])?
Result: binds
